Measured values taken from patent US20090098142A1 (published 2009).

Target: T1, cynomolgus monkey IL-13 (NHP IL-13) (cynomolgus monkey, UniProt Q5I6E4 21-132 (Macaca thibetana entry))
T1 construct: Also used here for the IL-13 found in cynomolgus monkey serum; also called non-human primate IL-13; cynomolgus IL-13
T1 chain: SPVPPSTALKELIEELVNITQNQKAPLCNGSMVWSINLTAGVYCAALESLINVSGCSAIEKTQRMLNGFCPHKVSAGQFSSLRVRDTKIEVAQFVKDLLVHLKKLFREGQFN
Assay: direct NHP IL-13 binding ELISA
Description: The humanized MJ 2-7 V3 and V4 were produced in COS cells by combining hMJ 2-7 VH V1 with hMJ 2-7 VL V3 and V4. The antigen binding properties of the antibodies were examined by direct NHP IL-13 binding ELISA.

B1: humanized MJ 2-7 V3 (hMJ 2-7 VH V1 with hMJ 2-7 VL V3) (antibody, V domains shown)
VH: QVQLVQSGAEVKKPGASVKVSCKASGFNIKDTYIHWVRQAPGQRLEWMGRIDPANDNIKYDPKFQGRVTITRDTSASTAYMELSSLRSEDTAVYYCARSEENWYDFFDYWGQGTLVTVSS
VL: DVVMTQSPLSLPVTLGQPASISCRSSQSLVYSDGNTYLNWFQQRPGQSPRRLIYKVSNRFSGVPDRFSGSGSGTDFTLKISRVEAEDVGVYYCFQGSHIPYTFGGGTKVEIK
notes: Produced in COS cells; VL V3: DPK18 with human germline CDR1 and CDR2 and the CDR3 of mouse MJ2-7; also called hMJ2-7 V3; Version 3
**Q.** Does B1 bind?
**A.** Result: no binding
